Measured values published in patent publication US12662524B2.
Several values for one entry are separate records, joined by “and”; a condition that tells them apart may be missing. Equal values may be shown once.

Legend:
[1] = biological target: AP C3-convertase (C3bBb) (Homo sapiens (Human)) (UniProt P01024)
[2] = biological target: C3b (Homo sapiens (Human)) (UniProt P01024)
[3] = biological target: C4b (Homo sapiens (Human)) (UniProt P0C0L4)
[4] = substrate: CP C3-convertase (C4b2a) (Homo sapiens (Human)) (UniProt P0C0L4)

C4b (Homo sapiens (Human)), sequence (P0C0L4 757-1446 limits assumed, chain 1 of 2): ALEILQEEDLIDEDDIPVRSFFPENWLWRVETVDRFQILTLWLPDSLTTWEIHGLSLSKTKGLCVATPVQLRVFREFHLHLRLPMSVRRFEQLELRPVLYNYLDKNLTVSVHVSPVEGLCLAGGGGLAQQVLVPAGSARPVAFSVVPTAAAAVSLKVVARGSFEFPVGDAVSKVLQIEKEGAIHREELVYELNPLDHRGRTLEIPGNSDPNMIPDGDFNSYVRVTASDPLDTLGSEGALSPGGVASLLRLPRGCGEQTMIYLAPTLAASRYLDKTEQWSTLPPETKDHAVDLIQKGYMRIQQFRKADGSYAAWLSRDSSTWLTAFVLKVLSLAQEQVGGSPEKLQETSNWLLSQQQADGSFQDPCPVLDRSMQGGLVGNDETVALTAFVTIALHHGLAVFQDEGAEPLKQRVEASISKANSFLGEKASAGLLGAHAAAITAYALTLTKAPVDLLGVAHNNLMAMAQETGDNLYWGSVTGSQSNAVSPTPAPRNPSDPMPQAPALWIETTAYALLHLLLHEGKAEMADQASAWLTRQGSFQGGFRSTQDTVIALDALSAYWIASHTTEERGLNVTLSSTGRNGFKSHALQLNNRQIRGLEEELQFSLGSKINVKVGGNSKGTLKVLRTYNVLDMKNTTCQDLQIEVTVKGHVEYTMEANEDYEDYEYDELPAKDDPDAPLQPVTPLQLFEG
C4b (Homo sapiens (Human)), sequence (P0C0L4 20-675 limits assumed, chain 2 of 2): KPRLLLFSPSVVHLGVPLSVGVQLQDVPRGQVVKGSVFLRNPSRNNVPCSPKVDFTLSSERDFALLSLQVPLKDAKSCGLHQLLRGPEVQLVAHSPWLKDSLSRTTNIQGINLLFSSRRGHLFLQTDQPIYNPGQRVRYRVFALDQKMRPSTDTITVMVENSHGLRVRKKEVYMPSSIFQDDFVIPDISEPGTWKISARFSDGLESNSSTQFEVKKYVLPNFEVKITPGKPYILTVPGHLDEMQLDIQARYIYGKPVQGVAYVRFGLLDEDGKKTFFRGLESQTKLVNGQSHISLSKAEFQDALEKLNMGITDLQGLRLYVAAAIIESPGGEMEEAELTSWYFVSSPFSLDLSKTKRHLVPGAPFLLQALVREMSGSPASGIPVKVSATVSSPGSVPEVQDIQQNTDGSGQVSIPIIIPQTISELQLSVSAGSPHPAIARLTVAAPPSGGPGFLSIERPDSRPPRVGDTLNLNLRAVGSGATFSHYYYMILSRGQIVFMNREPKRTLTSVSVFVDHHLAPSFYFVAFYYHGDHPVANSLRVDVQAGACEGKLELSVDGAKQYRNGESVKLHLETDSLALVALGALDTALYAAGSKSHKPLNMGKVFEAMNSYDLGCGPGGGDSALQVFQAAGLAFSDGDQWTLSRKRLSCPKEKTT

Binder | AP-DAA IC50 [1] | C3b CFA: time (min.) for 50% cleavage of C3b α′-chain [2] | C4b CFA: time (min.) for 50% cleavage of C4b α-chain [3] | CP-DAA IC50 [4]
D2D3M3M4 (Multi-4) (protein) CEVPTRLNSASLKQPYITQNYFPVGTVVEYECRPGYRREPSLSPKLTCLQNLKWSTAVEFCKKKSCPNPGEIRNGQIDVPGGILFGATISFSCNTGYKLIGKTSSFCLISGSSVQWSDKLPICEKVLCTPPPKIKNGKHTFSEVEVFEYLDAVTYSCDPAPGPDPFSLIGESTIYCGDNSVWSRAAPECKVVKCRFPVVENGKQISGFGKKFYYKATVMFECDKGFYLDGSDTIVCDSNSTWDPPVPKCLKVL | > 10 nM | 17.5 min | 5.5 min | 39.3 nM
D2D3M3M4 (Multi-5) or DCP (protein) CEVPTRLNSASLKQPYITQNYFPVGTVVEYECRPGYRREPSLSPKLTCLQNLKWSTAVEFCKKKSCPNPGEIRNGQIDVPGGILFGATISFSCNTGYKLIGSTSSFCLISGSSVQWSDKLPICEKVLCTPPPKIKNGKHTFSEVEVFEYLDAVTYSCDPAPGPDPFSLIGESTIYCGDNSVWSRAAPECKVVKCRFPVVENGKQISGFGKKFYYKATVMFECDKGFYLDGSDTIVCDSNSTWDPPVPKCLKVL | 2.4 nM | 3.3 min | 3.1 min | 12.7 nM
D2D3M3M4 (protein) CEVPTRLNSASLKQPYITQNYFPVGTVVEYECRPGYRREPSLSPKLTCLQNLKWSTAVEFCKKKSCPNPGEIRNGQIDVPGGILFGATISFSCNTGYKLFGSTSSFCLISGSSVQWSDPLPECREIYCTPPPKIKNGKHTFSEVEVFEYLDAVTYSCDPAPGPDPFSLIGESTIYCGDNSVWSRAAPECKVVKCRFPVVENGKQISGFGKKFYYKATVMFECDKGFYLDGSDTIVCDSNSTWDPPVPKCLKVL | 2.4 nM and 2.1 nM | 80.7 min and 82.6 min | 429 min and 465 min | 5.1 nM and 15.9 nM
D2D3D4M4 (protein) CEVPTRLNSASLKQPYITQNYFPVGTVVEYECRPGYRREPSLSPKLTCLQNLKWSTAVEFCKKKSCPNPGEIRNGQIDVPGGILFGATISFSCNTGYKLFGSTSSFCLISGSSVQWSDPLPECREIYCPAPPQIDNGIIQGERDHYGYRQSVTYACNKGFTMIGEHSIYCTVNNDEGEWSGPPPECRGKSCRFPVVENGKQISGFGKKFYYKATVMFECDKGFYLDGSDTIVCDSNSTWDPPVPKCLKVL | 5.6 nM |  |  | 5.7 nM
D2D3 (protein) CEVPTRLNSASLKQPYITQNYFPVGTVVEYECRPGYRREPSLSPKLTCLQNLKWSTAVEFCKKKSCPNPGEIRNGQIDVPGGILFGATISFSCNTGYKLFGSTSSFCLISGSSVQWSDPLPECREIY | > 10 nM |  |  | 10.9 nM
D2D3M3M4 (K195Y) (protein) CEVPTRLNSASLKQPYITQNYFPVGTVVEYECRPGYRREPSLSPKLTCLQNLKWSTAVEFCKKKSCPNPGEIRNGQIDVPGGILFGATISFSCNTGYYLFGSTSSFCLISGSSVQWSDPLPECREIYCTPPPKIKNGKHTFSEVEVFEYLDAVTYSCDPAPGPDPFSLIGESTIYCGDNSVWSRAAPECKVVKCRFPVVENGKQISGFGKKFYYKATVMFECDKGFYLDGSDTIVCDSNSTWDPPVPKCLKVL | > 10 nM |  | > 540 min | > 100 nM
D2D3M3M4 (F197I) (protein) CEVPTRLNSASLKQPYITQNYFPVGTVVEYECRPGYRREPSLSPKLTCLQNLKWSTAVEFCKKKSCPNPGEIRNGQIDVPGGILFGATISFSCNTGYKLIGSTSSFCLISGSSVQWSDPLPECREIYCTPPPKIKNGKHTFSEVEVFEYLDAVTYSCDPAPGPDPFSLIGESTIYCGDNSVWSRAAPECKVVKCRFPVVENGKQISGFGKKFYYKATVMFECDKGFYLDGSDTIVCDSNSTWDPPVPKCLKVL | 4.4 nM | 49.8 min | 66.7 min | 30.7 nM
D2D3M3M4 (L205K) (protein) CEVPTRLNSASLKQPYITQNYFPVGTVVEYECRPGYRREPSLSPKLTCLQNLKWSTAVEFCKKKSCPNPGEIRNGQIDVPGGILFGATISFSCNTGYKLFGSTSSFCKISGSSVQWSDPLPECREIYCTPPPKIKNGKHTFSEVEVFEYLDAVTYSCDPAPGPDPFSLIGESTIYCGDNSVWSRAAPECKVVKCRFPVVENGKQISGFGKKFYYKATVMFECDKGFYLDGSDTIVCDSNSTWDPPVPKCLKVL | > 10 nM | 104 min | 433 min | 9.2 nM
D2D3M3M4 (P216K) (protein) CEVPTRLNSASLKQPYITQNYFPVGTVVEYECRPGYRREPSLSPKLTCLQNLKWSTAVEFCKKKSCPNPGEIRNGQIDVPGGILFGATISFSCNTGYKLFGSTSSFCLISGSSVQWSDKLPECREIYCTPPPKIKNGKHTFSEVEVFEYLDAVTYSCDPAPGPDPFSLIGESTIYCGDNSVWSRAAPECKVVKCRFPVVENGKQISGFGKKFYYKATVMFECDKGFYLDGSDTIVCDSNSTWDPPVPKCLKVL | 3.4 nM | 30.1 min | 93 min | 21 nM
D2D3M3M4 (Multi-1) (protein) CEVPTRLNSASLKQPYITQNYFPVGTVVEYECRPGYRREPSLSPKLTCLQNLKWSTAVEFCKKKSCPNPGEIRNGQIDVPGGILFGATISFSCNTGYKLFGSTSSFCLISGSSVQWSDPLPICEKVLCTPPPKIKNGKHTFSEVEVFEYLDAVTYSCDPAPGPDPFSLIGESTIYCGDNSVWSRAAPECKVVKCRFPVVENGKQISGFGKKFYYKATVMFECDKGFYLDGSDTIVCDSNSTWDPPVPKCLKVL | 1.9 nM | 27.3 min | 443 min | 22.6 nM

More lines, now with the values ahead:

AP-DAA IC50 [1] | C3b CFA: time (min.) for 50% cleavage of C3b α′-chain [2] | C4b CFA: time (min.) for 50% cleavage of C4b α-chain [3] | CP-DAA IC50 [4] | Binder
1.1 nM and 2.3 nM |  |  | 16.5 nM and 14.5 nM and 2.6 nM | decay-accelerating factor (DAF; CD55) (protein) CGLPPDVPNAQPALEGRTSFPEDTVITYKCEESFVKIPGEKDSVICLKGSQWSDIEEFCNRSCEVPTRLNSASLKQPYITQNYFPVGTVVEYECRPGYRREPSLSPKLTCLQNLKWSTAVEFCKKKSCPNPGEIRNGQIDVPGGILFGATISFSCNTGYKLFGSTSSFCLISGSSVQWSDPLPECREIYCPAPPQIDNGIIQGERDHYGYRQSVTYACNKGFTMIGEHSIYCTVNNDEGEWSGPPPECRGKS
 | 3.5 min and 2.1 min and 4.5 min | 16.5 min and 12 min and 9.3 min |  | membrane cofactor protein (MCP; CD46) (protein) CEEPPTFEAMELIGKPKPYYEIGERVDYKCKKGYFYIPPLATHTICDRNHTWLPVSDDACYRETCPYIRDPLNGQAVPANGTYEFGYQMHFICNEGYYLIGEEILYCELKGSVAIWSGKPPICEKVLCTPPPKIKNGKHTFSEVEVFEYLDAVTYSCDPAPGPDPFSLIGESTIYCGDNSVWSRAAPECKVVKCRFPVVENGKQISGFGKKFYYKATVMFECDKGFYLDGSDTIVCDSNSTWDPPVPKCLKVL
> 10 nM |  |  | 457 nM | D2M2-4 (protein) CEVPTRLNSASLKQPYITQNYFPVGTVVEYECRPGYRREPSLSPKLTCLQNLKWSTAVEFCKKKSCPYIRDPLNGQAVPANGTYEFGYQMHFICNEGYYLIGEEILYCELKGSVAIWSGKPPICEKVLCTPPPKIKNGKHTFSEVEVFEYLDAVTYSCDPAPGPDPFSLIGESTIYCGDNSVWSRAAPECKVVKCRFPVVENGKQISGFGKKFYYKATVMFECDKGFYLDGSDTIVCDSNSTWDPPVPKCLKVL
> 10 nM |  |  | > 1000 nM | D2M2-4 (ML) (protein) CEVPTRLNSASLKQPYITQNYFPVGTVVEYECRPGYRREPSLSPKLTCLQNLKWSTAVEFCYRETCPYIRDPLNGQAVPANGTYEFGYQMHFICNEGYYLIGEEILYCELKGSVAIWSGKPPICEKVLCTPPPKIKNGKHTFSEVEVFEYLDAVTYSCDPAPGPDPFSLIGESTIYCGDNSVWSRAAPECKVVKCRFPVVENGKQISGFGKKFYYKATVMFECDKGFYLDGSDTIVCDSNSTWDPPVPKCLKVL
2.3 nM | 74.3 min | 268 min | 15.3 nM | D2D3M3M4 (T192E) (protein) CEVPTRLNSASLKQPYITQNYFPVGTVVEYECRPGYRREPSLSPKLTCLQNLKWSTAVEFCKKKSCPNPGEIRNGQIDVPGGILFGATISFSCNEGYKLFGSTSSFCLISGSSVQWSDPLPECREIYCTPPPKIKNGKHTFSEVEVFEYLDAVTYSCDPAPGPDPFSLIGESTIYCGDNSVWSRAAPECKVVKCRFPVVENGKQISGFGKKFYYKATVMFECDKGFYLDGSDTIVCDSNSTWDPPVPKCLKVL
6.6 nM | 18.9 min | 181 min | 21.7 nM | D2D3M3M4 (S199K) (protein) CEVPTRLNSASLKQPYITQNYFPVGTVVEYECRPGYRREPSLSPKLTCLQNLKWSTAVEFCKKKSCPNPGEIRNGQIDVPGGILFGATISFSCNTGYKLFGKTSSFCLISGSSVQWSDPLPECREIYCTPPPKIKNGKHTFSEVEVFEYLDAVTYSCDPAPGPDPFSLIGESTIYCGDNSVWSRAAPECKVVKCRFPVVENGKQISGFGKKFYYKATVMFECDKGFYLDGSDTIVCDSNSTWDPPVPKCLKVL
3.7 nM | 103 min | 513 min | 17.7 nM | D2D3M3M4 (T200Y) (protein) CEVPTRLNSASLKQPYITQNYFPVGTVVEYECRPGYRREPSLSPKLTCLQNLKWSTAVEFCKKKSCPNPGEIRNGQIDVPGGILFGATISFSCNTGYKLFGSYSSFCLISGSSVQWSDPLPECREIYCTPPPKIKNGKHTFSEVEVFEYLDAVTYSCDPAPGPDPFSLIGESTIYCGDNSVWSRAAPECKVVKCRFPVVENGKQISGFGKKFYYKATVMFECDKGFYLDGSDTIVCDSNSTWDPPVPKCLKVL
